This note sets out measurements from patent US11180770B2, “HPPD variants and methods of use” (BASF Agricultural Solutions Seed US LLC, priority 2017, dated 2021).

The series has as its system HPPD polypeptides. The series can be described thus: coupled HPPD activity assay: turnover and residual turnover in crude extracts. Type of series: biochemical, Pseudomonas fluorescens. The settings on record: for Turnover: absence of Cmpd. 1, kinetic changes in absorbance (OD) at 320 nm, 30 min; for Turnover / Residual turnover: high substrate concentration; for Residual turnover: presence of 100 μM Cmpd. 1, changes in absorbance (OD) at 320 nm; for Residual turnover [%]: 100 μM Cmpd. 1, signal change with inhibitor divided by signal change without inhibitor.

B1: 35 (protein)
chain: MADLYENPMGLMGFEFIEFASPTPGTLEPIFEIMGFTKVATHRSKNVHLYRQGEINLILNNEPNSIASYFAAEHGPSVCGMAFRVKDSQKAYNRALELGAQPIHIDTGPMELNLPAIKGIGGAPLYLIDRFGEGSSIYDIDFVYLEGVERNPVGAGLKVIDHLTHNVYRGRMVYWANFYEKLFNFREARYFDIKGEYTGLTSKAMSAPDGMIRIPLNEESSKGAGQIEEFLMQFNGEGIQHVAFLTDDLVKTWDALKKIGMRFMTAPPDNYYEMLEGRLPDHGEPVDQLQARGILLDGSSVEGDKRLLLQIFSETLMGPVFFEFIQRKGDDGFGPHSFKVLFESVERDQVRRGVLTAD
modifications: mutant HPPD polypeptide
B1: the Turnover stood at 0.036 and the Residual turnover amounted to 0.023.

B2: 45 (protein)
chain: MADLYENPMGLMGFEFIEFASPTPGTLEPIFEIMGFTKVATHRSKNVHLYRQGEINLILNNEPNSIASYFAAEHGPSVCGMAFRVKDSQKAYNRALELGAQPIHIDTGPMELNLPAIKGIGGAPLYLIDRFGEGSSIYDIDFVYLEGVERNPVGAGLKVIDHLTHNVYRGRMVYWANFYEKLFNFREARYFDIKGEYTGLTSKAMSAPDGMIRIPLNEESSKGAGQIEEFLMQFNGEGIQHVAFLTDDLVKTWDALKKIGMRFMTAPADNYYEMLEGRLPDHGEPVDQLQARGILLDGSSVEGDKRLLLQIFSETLMGPVFFEFIQRKGDDGFGPHSFKVLFEQVERDQVRRGVLTAD
modifications: mutant HPPD polypeptide
As for B2, the “Residual turnover [%]” value is 57%, the Turnover is on record as 0.214 and the Residual turnover was found to be 0.121.

B3: 37 (protein)
chain: MADLYENPMGLMGFEFIEFASPTPGTLEPIFEIMGFTKVATHRSKNVHLYRQGEINLILNNEPNSIASYFAAEHGPSVCGMAFRVKDSQKAYNRALELGAQPIHIDTGPMELNLPAIKGIGGAPLYLIDRFGEGSSIYDIDFVYLEGVERNPVGAGLKVIDHLTHNVYRGRMVYWANFYEKLFNFREARYFDIKGEYTGLTSKAMSAPDGMIRIPLNEESSKGAGQIEEFLMQFNGEGIQHVAFLTDDLVKTWDALKKIGMRFMTAPSDNYYEMLEGRLPDHGEPVDQLQARGILLDGSSVEGDKRLLLQIFSETLMGPVFFEFIQRKGDDGFGPHSFKVLFESVERDQVRRGVLTAD
modifications: mutant HPPD polypeptide
As for B3, the “Residual turnover [%]” value is 50%, the Turnover stood at 0.096 and the Residual turnover came out at 0.048.

B4: 44 (protein)
chain: MADLYENPMGLMGFEFIEFASPTPGTLEPIFEIMGFTKVATHRSKNVHLYRQGEINLILNNEPNSIASYFAAEHGPSVCGMAFRVKDSQKAYNRALELGAQPIHIDTGPMELNLPAIKGIGGAPLYLIDRFGEGSSIYDIDFVYLEGVERNPVGAGLKVIDHLTHNVYRGRMVYWANFYEKLFNFREARYFDIKGEYTGLTSKAMSAPDGMIRIPLNEESSKGAGQIEEFLMQFNGEGIQHVAFLTDDLVKTWDALKKIGMRFMTAPGDEYYEMLEGRLPDHGEPVDQLQARGILLDGSSVEGDKRLLLQIFSETLMGPVFFEFIQRKGDDGFGPHSFKVLFEQVERDQVRRGVLTAD
modifications: mutant HPPD polypeptide
In turn, B4 showed a Turnover of 0.036.

B5: 41 (protein)
chain: MADLYENPMGLMGFEFIEFASPTPGTLEPIFEIMGFTKVATHRSKNVHLYRQGEINLILNNEPNSIASYFAAEHGPSVCGMAFRVKDSQKAYNRALELGAQPIHIDTGPMELNLPAIKGIGGAPLYLIDRFGEGSSIYDIDFVYLEGVERNPVGAGLKVIDHLTHNVYRGRMVYWANFYEKLFNFREARYFDIKGEYTGLTSKAMSAPDGMIRIPLNEESSKGAGQIEEFLMQFNGEGIQHVAFLTDDLVKTWDALKKIGMRFMTAPRDEYYEMLEGRLPDHGEPVDQLQARGILLDGSSVEGDKRLLLQIFSETLMGPVFFEFIQRKGDDGFGPHSFKVLFESVERDQVRRGVLTAD
modifications: mutant HPPD polypeptide
Regarding B5, the “Residual turnover [%]” value is recorded as 38%, the Turnover was 0.280 and the Residual turnover is listed as 0.105.

B6: 38 (protein)
chain: MADLYENPMGLMGFEFIEFASPTPGTLEPIFEIMGFTKVATHRSKNVHLYRQGEINLILNNEPNSIASYFAAEHGPSVCGMAFRVKDSQKAYNRALELGAQPIHIDTGPMELNLPAIKGIGGAPLYLIDRFGEGSSIYDIDFVYLEGVERNPVGAGLKVIDHLTHNVYRGRMVYWANFYEKLFNFREARYFDIKGEYTGLTSKAMSAPDGMIRIPLNEESSKGAGQIEEFLMQFNGEGIQHVAFLTDDLVKTWDALKKIGMRFMTAPADEYYEMLEGRLPDHGEPVDQLQARGILLDGSSVEGDKRLLLQIFSETLMGPVFFEFIQRKGDDGFGPHSFKVLFESVERDQVRRGVLTAD
modifications: mutant HPPD polypeptide
Consider B6, for which the “Residual turnover [%]” value was 45%, the Turnover came to 0.286 and the Residual turnover is 0.129.

B7: 40 (protein)
chain: MADLYENPMGLMGFEFIEFASPTPGTLEPIFEIMGFTKVATHRSKNVHLYRQGEINLILNNEPNSIASYFAAEHGPSVCGMAFRVKDSQKAYNRALELGAQPIHIDTGPMELNLPAIKGIGGAPLYLIDRFGEGSSIYDIDFVYLEGVERNPVGAGLKVIDHLTHNVYRGRMVYWANFYEKLFNFREARYFDIKGEYTGLTSKAMSAPDGMIRIPLNEESSKGAGQIEEFLMQFNGEGIQHVAFLTDDLVKTWDALKKIGMRFMTAPGDEYYEMLEGRLPDHGEPVDQLQARGILLDGSSVEGDKRLLLQIFSETLMGPVFFEFIQRKGDDGFGPDSFKVLFESVERDQVRRGVLTAD
modifications: mutant HPPD polypeptide
In the case of B7, the “Residual turnover [%]” value is listed as 54%, the Turnover is listed as 0.134 and the Residual turnover was determined as 0.073.

B8: 42 (protein)
chain: MADLYENPMGLMGFEFIEFASPTPGTLEPIFEIMGFTKVATHRSKNVHLYRQGEINLILNNEPNSIASYFAAEHGPSVCGMAFRVKDSQKAYNRALELGAQPIHIDTGPMELNLPAIKGIGGAPLYLIDRFGEGSSIYDIDFVYLEGVERNPVGAGLKVIDHLTHNVYRGRMVYWANFYEKLFNFREARYFDIKGEYTGLTSKAMSAPDGMIRIPLNEESSKGAGQIEEFLMQFNGEGIQHVAFLTDDLVKTWDALKKIGMRFMTAPSDEYYEMLEGRLPDHGEPVDQLQARGILLDGSSVEGDKRLLLQIFSETLMGPVFFEFIQRKGDDGFGPHSFKVLFESVERDQVRRGVLTAD
modifications: mutant HPPD polypeptide
B8: the “Residual turnover [%]” value was 40%, the Turnover is reported as 0.278 and the Residual turnover is listed as 0.111.

B9: 36 (protein)
chain: MADLYENPMGLMGFEFIEFASPTPGTLEPIFEIMGFTKVATHRSKNVHLYRQGEINLILNNEPNSIASYFAAEHGPSVCGMAFRVKDSQKAYNRALELGAQPIHIDTGPMELNLPAIKGIGGAPLYLIDRFGEGSSIYDIDFVYLEGVERNPVGAGLKVIDHLTHNVYRGRMVYWANFYEKLFNFREARYFDIKGEYTGLTSKAMSAPDGMIRIPLNEESSKGAGQIEEFLMQFNGEGIQHVAFLTDDLVKTWDALKKIGMRFMTAPRDNYYEMLEGRLPDHGEPVDQLQARGILLDGSSVEGDKRLLLQIFSETLMGPVFFEFIQRKGDDGFGPHSFKVLFESVERDQVRRGVLTAD
modifications: mutant HPPD polypeptide
Turning to B9, the “Residual turnover [%]” value is listed as 61%, the Turnover was determined as 0.108 and the Residual turnover came to 0.066.

B10: 43 (protein)
chain: MADLYENPMGLMGFEFIEFASPTPGTLEPIFEIMGFTKVATHRSKNVHLYRQGEINLILNNEPNSIASYFAAEHGPSVCGMAFRVKDSQKAYNRALELGAQPIHIDTGPMELNLPAIKGIGGAPLYLIDRFGEGSSIYDIDFVYLEGVERNPVGAGLKVIDHLTHNVYRGRMVYWANFYEKLFNFREARYFDIKGEYTGLTSKAMSAPDGMIRIPLNEESSKGAGQIEEFLMQFNGEGIQHVAFLTDDLVKTWDALKKIGMRFMTAPADEYYEMLEGRLPDHGEPVDQLQARGILLDGSSVEGDKRLLLQIFSETLMGPVFFEFIQRKGDDGFGPHSFKVLFEQVERDQVRRGVLTAD
modifications: mutant HPPD polypeptide
As to B10, the “Residual turnover [%]” value is reported as 58%, the Turnover is 0.190 and the Residual turnover stood at 0.110.

B11: 39 (protein)
chain: MADLYENPMGLMGFEFIEFASPTPGTLEPIFEIMGFTKVATHRSKNVHLYRQGEINLILNNEPNSIASYFAAEHGPSVCGMAFRVKDSQKAYNRALELGAQPIHIDTGPMELNLPAIKGIGGAPLYLIDRFGEGSSIYDIDFVYLEGVERNPVGAGLKVIDHLTHNVYRGRMVYWANFYEKLFNFREARYFDIKGEYTGLTSKAMSAPDGMIRIPLNEESSKGAGQIEEFLMQFNGEGIQHVAFLTDDLVKTWDALKKIGMRFMTAPGDEYYEMLEGRLPDHGEPVDQLQARGILLDGSSVEGDKRLLLQIFSETLMGPVFFEFIQRKGDDGFGPHSFKVLFESVERDQVRRGVLTAD
modifications: mutant HPPD polypeptide
Take B11: the “Residual turnover [%]” value stood at 40%, the Turnover came to 0.244 and the Residual turnover was found to be 0.097.
